Substitutions are numbered along the chain they refer to. Names may count otherwise.
B1: P018.S.02.A.G03 (antibody, V domains shown)
VH: QSVEESGGRLVTPGTPLTLTCTVSGFSLSSYVMSWVRQAPGKGLEWIGYIDYGGTAYYASWAKGRFTISKTSTTVELKITSPTIEDTATYFCARGGYGGYILVTGLWGPGTLVTVSS
VL: DIVMTQTPASVSEPVGGTVTIKCQASQTIISYLSWYQQKPGQPPKLLIYGASTLASGVPSRFKGSGSVTEYTLTISDLESADAATYYCQTYYGGGPFGNGFGGGTEVVVK
notes: V regions on human Ig constant parts; also called AB27_38
B2: P018.S.09.A.H04 (antibody, V domains shown)
VH: B1 VH with I50S, S60N, G98D, I101L
VL: B1 VL with T28S, I30S, S34A, G50S, P59S, V68G
notes: V regions on human Ig constant parts; also called AB27_161
B3: P018.S.02.A.F06 (antibody, V domains shown)
VH: B1 VH with A56P
VL: B1 VL with I2V, T28S, I30S, L33C, K39R, V68G
notes: V regions on human Ig constant parts; also called AB27_36
B4: P018.S.05.A.E04 (antibody, V domains shown)
VH: QEQLEESGGDLVKPEGSLTLTCTASGFSFSSYWICWVRQAPGKGLEWIACIATHSGTDFYASWAKGRFTISKTSSTTVTLQMTSLTAADTATYFCARDPYGFNGDYFSLWGPGTLVTVSS
VL: ALVMTQTPASVSAAVGGTVTINCQASQSVYNSNYLSWYQQKPGQPPKLLIYKASTLASGVPSRFKGSGSGTQFTLTISGVESDDAATYYCAGYKSYTNDDNGFGGGTEVVVK
notes: V regions on human Ig constant parts; also called AB27_90
B5: P018.S.05.A.C06 (antibody, V domains shown)
VH: QSLEESGGRLVTPGTPLTLTCTASGFSLSNYYITWVRQAPGEGLEWIGTISTAGNTYFASWAKGRFTISRTSTTVDLKMTSPTTEDTATYFCARDGAGDSNYYRNLWGQGTLVTVSS
VL: DIVLTQTPASVEAAVGGTVTIKCQASQSIDRFLAWYQQKPGQPPKLLIVDASTLESGVPSRFSGSGSGTEFTLTISDLESDNAATYYCQQGYSISDIDNVFGGGTEVVVK
notes: V regions on human Ig constant parts; also called AB27_85
B6: P018.S.07.A.F03 (antibody, V domains shown)
VH: B5 VH with K63N
VL: B5 VL
notes: V regions on human Ig constant parts; also called AB27_127
B7: P018.S.06.A.E01 (antibody, V domains shown)
VH: B5 VH with N30S, I33M, A62V, A93T
VL: B5 VL with D1A, V3D, L4M, Q27E, S93A
notes: V regions on human Ig constant parts; also called AB27_104
B8: P018.S.06.A.F01 (antibody, V domains shown)
VH: B5 VH with N30S, I33M
VL: B5 VL with D1A, I2Y, V3D, L4M, Q27E
notes: V regions on human Ig constant parts; also called AB27_107
B9: P018.S.08.A.H02 (antibody, V domains shown)
VH: QSLEESGGRLVTPGTPLTLTCTASGFSLSYYYMTWVRQAPGKGLEWIGITGGGGDTYYGTWAKGRFTISKTSTTVDLKMTSPTTEDTATYFCARGTDGAAHTGFALWGQGTLVTVSS
VL: DIVMTQTPASVEAAVGGTVTIKCQASEDISSRLSWYQQKPGQPPKLLIYLASTLASGVPSRFKGSGSGTQFTLTISDLESADAATYYCQSSSYGTSTIYGTFGGGTEVVVK
notes: V regions on human Ig constant parts; also called AB27_142
B10: P018.S.01.A.H06 (antibody, V domains shown)
VH: QEQLKESGGRLVKPDETLTITCTASGFSLSRYDMSWVRQAPGKGLEWIGSIWSDGDTDYANWAKGRFTISKTSTTVDLKITSPTTEDTATYFCARGYTAWSLWGPGTLVTVSS
VL: ALVMTQTPSPVSAAVGGTVTISCQSSESVVGNNALSWFQQKPGQPPKLLNYQASTLASGVSSRFSGSGSGTQFTLTISGVQSDDAATYYCQGTYYSSGWYFAFGGGTEVVVK
notes: V regions on human Ig constant parts; also called AB27_26
B11: P018.S.05.A.G04 (antibody, V domains shown)
VH: B10 VH with T17S, I20L, T75M, A94G, S101N
VL: B10 VL with A14T, V19L, N50I
notes: V regions on human Ig constant parts; also called AB27_93
B12: P018.S.01.A.F05 (antibody, V domains shown)
VH: QEQLEESGGDLVKPEGSLTLTCTASGFSFSSSYWICWVRQAPGKGLEWIGCIITGRGNTYYANWAKGRFTISKTSSTTVTLQMTSLTAADTAIYSCARGPGGADPVNLWGPGTLVTVSS
VL: DVVMTQTPASVSEPVGGTVTIKCQASQSIYSNLAWYQQKPGQPPKLLIYRASTLTSGVPSRFKGSGSGTQFTLTISDLESADAATYYCQCTYDGSSYVPNAFGGGTEVVVK
notes: V regions on human Ig constant parts; also called AB27_20
B13: P018.S.04.A.F04 (antibody, V domains shown)
VH: QSVEESGGRLVTPGTPLTLTCTVSGFSLSNYAMSWVRQAPGKGLEWIGIIYASGTTYYARWAKGRFTISRTSTTVDLKISSPTTEDTATYFCAREYDSYDYAYGSSIYAFDPWGPGTLVTVSS
VL: AYDMTQTPSSVSAAVGGTVTIKCQASESIYSNLAWYQQKPGQRPKLLIYRASTLASGVSSRFKGSGSGTQFTLSISGVESADAATYYCQQGYSSSNVDNVFGGGTEVVVK
notes: V regions on human Ig constant parts; also called AB27_77
B14: P018.S.09.A.D04 (antibody, V domains shown)
VH: QSVEESGGRLVTPGTPLTLTCTVSGFSLSSNAISWVRQAPGKGLEWIAIITHSDNTFYASWAKGRFTISKASTTVDLKVTSPTTEDTATYFCARDGYVSSSGTYMGGYFDLWGQGTLVTVSS
VL: DPVLTQTPSPVSAAVGGTVTINCQASQIIYNDKNLAWYQQKPGQPPKLLIYYASTLASGVSSRFKGSASGTQFTFTISGVQSDDAATYYCQGEFSCSSADCIAFGGGTEVVVK
notes: V regions on human Ig constant parts; also called AB27_151
B15: P018.S.07.A.F04 (antibody, V domains shown)
VH: QSLEESGGRLVTPGTPLTLTCTVSGFSLSSHAMSWVRQAPGKGLEYIGIIDTDASASYASWAKGRFTISRTSTTVDLKITSPTTEDTATYFCARDGGYTDYSYYAMDLWGPGTLVTVSS
VL: DIVMTQTPASVEAAVGGTVTIKCQASETIYVNLAWYQQKPGQPPKLLIYRASTLASGVSSRFKGSGSGTEFTLTISDVKSVDAATYYCHQAYRRSDVGNIFGGGTEVVVK
notes: V regions on human Ig constant parts; also called AB27_128
B16: P018.S.07.A.H06 (antibody, V domains shown)
VH: QSLEESGGDLVQPGASLTLTCKASGIDLSSYWMCWVRQTPGKGLEWIGCIATYSSVTYYANWAKGRFTISKPSSTTVTLQMTSLTAADTATYFCARDPYSFNGSLFTLWGPGTLVTVSS
VL: ALVMTQTASPVSAAVGGTVTIDCQASQNIGTYLAWYQQKPGQPPKLLIYTASSLASGVPSRFKGSGSGTQFTLTISDLESDDAATYYCAGYKNYNNDDNGFGGGTEVVVK
notes: V regions on human Ig constant parts; also called AB27_134
B17: P018.S.07.A.B06 (antibody, V domains shown)
VH: QEQLVESGGDLVKPGTSLTLTCKASGLDFSSTPYMCWVRQAPGKGLEWIACIYTGSVIYTYYASWAKDRFTISKISSTSVTLQMTSLTVADTATYFCARSPAGYAAYGYGGFNLWGPGTLVTVSS
VL: AIEMTQTPFSVSAAVGGTVTINCQASQNIYNNLAWYQQKPGQPPKLLIYGASTLESGVPSRFEGSGSGTEYTLTISDLESDDAATYYCQSAYYSSSATDMAFGGGTEVVVK
notes: V regions on human Ig constant parts; also called AB27_118

What follows are binders tested against T1, CD27 expressed on the cell surface (HT1080_CD27 cells) (human, UniProt P26842 20-260) (assay: cellular binding assay, HT1080_CD27 cells).
T1 construct: whole, on cells; also called K562_CD27
T1 sequence (looked up): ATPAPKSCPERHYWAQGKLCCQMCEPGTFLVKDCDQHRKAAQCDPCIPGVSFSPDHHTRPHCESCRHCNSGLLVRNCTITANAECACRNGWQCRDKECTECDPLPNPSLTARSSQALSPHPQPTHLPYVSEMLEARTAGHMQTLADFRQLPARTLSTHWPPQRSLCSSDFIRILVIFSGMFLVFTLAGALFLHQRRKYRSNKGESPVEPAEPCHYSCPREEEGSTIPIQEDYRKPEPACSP
Note: test concentration or dose not given here.

Row | Binder | Cellular binding assay [RFU]
1 | B1 | 357 RFU
2 | B2 | 314 RFU
3 | B3 | 294 RFU
4 | B4 | 332 RFU
5 | B5 | 351 RFU
6 | B6 | 380 RFU
7 | B7 | 354 RFU
8 | B8 | 310 RFU
9 | B9 | 352 RFU
10 | B10 | 422 RFU
11 | B11 | 375 RFU
12 | B12 | 369 RFU
13 | B13 | 320 RFU
14 | B14 | 376 RFU
15 | B15 | 296 RFU
16 | B16 | 327 RFU
17 | B17 | 372 RFU

What follows are binders tested against T1, CD27 expressed on the cell surface … (assay: cell-based or functional assay).

Row | Binder | IL-8, cross-linked by F(ab')2 fragment [abs. corr.] | IL-8 [abs. corr.]
18 | B1 | 1.48 abs. corr. | -0.061 abs. corr.
19 | B2 | 1.4 abs. corr. | 0.274 abs. corr.
20 | B3 | 1.73 abs. corr. | 0.094 abs. corr.
21 | B4 | 1.33 abs. corr. | 0.813 abs. corr.
22 | B5 | 1.11 abs. corr. | 0.539 abs. corr.
23 | B6 | 1.41 abs. corr. | 0.444 abs. corr.
24 | B7 | 1.55 abs. corr. | 0.525 abs. corr.
25 | B8 | 1.08 abs. corr. | 0.405 abs. corr.
26 | B9 | 1.91 abs. corr. | 0.328 abs. corr.
27 | B10 | 2.18 abs. corr. | 0.27 abs. corr.
28 | B11 | 1.19 abs. corr. | 0.393 abs. corr.
29 | B12 | 1.18 abs. corr. | 0.559 abs. corr.
30 | B13 | 2.49 abs. corr. | 1.6 abs. corr.
31 | B14 | 1.66 abs. corr. | 0.688 abs. corr.
32 | B15 | 1.58 abs. corr. | 0.424 abs. corr.
33 | B16 | 1.23 abs. corr. | 0.422 abs. corr.
34 | B17 | 1.07 abs. corr. | 0.218 abs. corr.

The binders below were run against T2, CD27 protein (His-tagged, Sino Biological Inc. 10039-H08B1) (human, UniProt P26842 20-192) (assay: ELISA on coated His-tagged CD27).
T2 construct: bought; coated onto ELISA plates; also called human CD27; recombinant protein; not shown: His tag
T2 sequence (looked up): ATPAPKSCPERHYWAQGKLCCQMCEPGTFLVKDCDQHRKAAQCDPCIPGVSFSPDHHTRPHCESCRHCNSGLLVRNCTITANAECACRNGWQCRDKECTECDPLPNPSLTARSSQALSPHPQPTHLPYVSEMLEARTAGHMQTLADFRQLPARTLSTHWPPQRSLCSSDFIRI

Row | Binder | ELISA [abs. corr.]
35 | B1 | 3.13 abs. corr.
36 | B2 | 3.36 abs. corr.
37 | B3 | 3.24 abs. corr.
38 | B4 | 3.35 abs. corr.
39 | B5 | 3.35 abs. corr.
40 | B6 | 3.53 abs. corr.
41 | B7 | 3.35 abs. corr.
42 | B8 | 3.4 abs. corr.
43 | B9 | 3.58 abs. corr.
44 | B10 | 3.44 abs. corr.
45 | B11 | 3.35 abs. corr.
46 | B12 | 3.35 abs. corr.
47 | B13 | 3.35 abs. corr.
48 | B14 | 3.35 abs. corr.
49 | B15 | 3.35 abs. corr.
50 | B16 | 3.35 abs. corr.
51 | B17 | 3.35 abs. corr.

Source: patent publication US20210253725A1 (BIONTECH, published 2021)
